The values below come from the DeepSol protein solubility set.

The series is described as follows: soluble on expression in E. coli; label from the status in PepcDB or PDB records.
Consider “SKHYPEAGIQYSSSTTGDGRPLDIEFSGSCSLEKFYDNPKSNDGNSYRLQSWLYASRLLQYSDALEHLLSTGQGVVLERSIYSDFVFLEAMYNQGFIRKQCVDHYNEIKRLTLPEYLPPHAVIYIDVPVSEIQSRIQKKGDPHEMKVTSAYLQDIEDAYKKTFLPKMSEICEVLVYSSWEAEDSTKVVEDIEYLNYNKGPWLKQDDRTFHNLRMLVQDKREVLNYTTVPVYLPEITIGAHQGSRIYDSFRELPGRKYAPGYNADVGDKWIWLK”, for which the “soluble on expression in E. coli” value was “soluble”.
Turning to “SKKGGKRFEIACYKNKVMSWRSGAEKDLDEVLQTNTVFVNVSKGQVAKKEDLSNAFGTDDLTEICKQILSKGELQVSDKERQSQLEQMFRDIATIVAEKCVNPETKRPYTVNLIERAMKDIHFSVKANKSTKQQALEVIKQLKESIQIQRAHMRLRFVLPAKDGKRLKEKLKPLIKAVENEDFDDQLEMVCLIDPGCFRDIDELIRCETKGKGTLEVLSLKDVEEGDEKLE”, the “soluble on expression in E. coli” value is “soluble”.
The same measure for “SKKLLFQFDTDATPSVFDVVVGYDGGADHITGYGNVTPDNVGAYVDGTIYTRGGKEKQSTAIFVGGGDMAAGERVFEAVKKRFFGPFRVSCMLDSNGSNTTAAAGVALVVKAAGGSVKGKKAVVLAGTGPVGMRSAALLAGEGAEVVLCGRKLDKAQAAADSVNKRFKVNVTAAETADDASRAEAVKGAHFVFTAGAIGLELLPQAAWQNESSIEIVADYNAQPPLGIGGIDATDKGKEYGGKRAFGALGIGGLKLKLHRACIAKLFESSEGVFDAEEIYKLAKEMA”: “soluble”.
The same measure for “SKLTRKMVLTRAKASELHSVRKLNCWGSRLTDISICQEMPSLEVITLSVNSISTLEPVSRCQRLSELYLRRNRIPSLAELFYLKGLPRLRVLWLAENPCCGTSPHRYRMTVLRTLPRLQKLDNQAVTEEELSRALSEGEEITAAPEREGTGHGGPKLCCTLSSLSSAAETGRDPLDSEEEATSGAQDERGLKPPSRGQFPSLSARDASSSHRGRNVLTAILLLLRELDAEGLEAVQQTVGSRLQALRGEEVQEHAE”: “soluble”; for “SKLVWSPETASKAYIDTVKSCENLETPDAAELIAAMAAGWNVKLIVETWSEGDAIASSIGLNVASKHANAKHICIVQNSRSESAYLQAIQESSSPLNFPETIVAEEPGKAMKKLQGVDFLVVDWRNKEFAAAALKNAAFGNRGAVVVCRNGYSSLRRVLRDRKVVRTVTLPVTGGIEIAHVAARNSGKSGNNKRRWITHVDQRSGEEHVFSI”: “soluble”.
As for “SKMARASASASLIDGKIYVFGGCPEDADSSNWAEVFDPVYQTWGIFNTPKMAHSINQSVVIEEKKVYAVDEEDQSFSFLPSEGRIWKSGKKDSKVGSRHDWCVIGKLLYCRATRGRILWCQPDELDWKEVKGLEQLQLYLSGTRYIFRRTSDKRPSKTNVKYDIRKISSNSAGNIVIFGNAHIGDPECVELWSAEISMERREGGEIWGKIEWSNVVFKLDPLSNSYSVDVLFSASVHL”, the entry is “soluble”.
As to “SKRVNSCVKDEEHVLEELETEGERQLKSLLQHQLDTSVSIEECVSKKKSFAPGTMYKPFGKEAAGTMTLSQFQTLHEKDQETASLRELGLNETEILIWKSHVSGEKRTKLRATPEAIQKRLEDIKERISERQRILCLPQRFSKSKQLTRREMEIEKSLFQGTDRHSFLKALYYQDEPPKKNKGDPMNNLEHFYRETIMKKRLEEFQLLRGESFACHSLVSAASVSGSGTAEKPSLLQDKGKQAAQGKGPRLHVAKLIDFPTEQYWTGPKTLKQPIEFIPEDEIQRNRLSEEEIRNIPMFSSYNPGEPNKVLYLKNLSPRVKERDLISLFARFQEKKGPPIQFRMMTGRMRGQAFLTFPNKDIAWQALHQINGYKLYGKILVIEFAKSKKQQSAVQRSSLITSAPDGRTEINGS”, the “soluble on expression in E. coli” value is listed as “soluble”.
On to “SLAEPPAQDPAELAAAAESYLRQQLAALPGEPSITLDPLRTDRLDACEALTPFMPSGMRVRARMTVGLRCVAPRTWTVYAQATVSVPGQYYVAARQIAPGKTIEAADLTTRDGDLVALPPGVITDAAAILGMRPAHRIAAGQPIKGAGLRSAESVSRGQSVRITARGNGFVVSSEGQALDNAPPGATVQVRTASGQVVSGIVQAAGLVEIQL”, for which the “soluble on expression in E. coli” value was “not soluble”.
The same measure for “SLANIREIAKRAGISIATVSRHLNNTGYVSEDAREKIQKVVDELNYTPNALARAMFTKNSKTIGLMVPNISNPFFNQMASVIEEYAKNKGYTLFLCNTDDDKEKEKTYLEVLQSHRVAGIIASRSQCEDEYANIDIPVVAFENHILDNIITISSDNYNGGRMAFDHLYEKGCRKILHIKGPEVFEATELRYKGFLDGARAKDLEIDFIEFQHDFQVKMLEEDINSMKDIVNYDGIFVFNDIAAATVMRALKKRGVSIPQEVQIIGFDNSFIGELLYPSLTTINQPIEALAYTIIELLIKIINGEGVLIEDYIMEVKLIERETTISLKDEG”: “soluble”.
As for “SLAPTTEIEPIEAQSLKKLSLKSLKRSLELFSPVHGQFPPPDPEAKQIRLSHKMKVAFGGVEPVVSQPPRQPDRINEQPGPSNALSLAAPEGSKSTQKGATESAIVVGPTLLRPILPKGLNYTGSSGKSTTIIPANVSSYQRNLSTAALMERIPSRWPRPEWHAPWKNYRVIQGHLGWVRSVAFDPSNEWFCTGSADRTIKIWDVATGVLKLTLTGHIEQVRGLAVSNRHTYMFSAGDDKQVKCWDLEQNKVIRSYHGHLSGVYCLALHPTLDVLLTGGRDSVCRVWDIRTKMQIFALSGHDNTVCSVFTRPTDPQVVTGSHDTTIKFWDLRYGKTMSTLTHHKKSVRAMTLHPKENAFASASADNTKKFSLPKGEFCHNMLSQQKTIINAMAVNEDGVMVTGGDNGSIWFWDWKSGHSFQQSETIVQPGSLESEAGIYAACYDNTGSRLVTCEADKTIKMWKEDENATPETHPINFKPPKEIRRF”, the entry is “soluble”.
As for “SLAQIPRPEIMDEDQLMKEVLDKFVNCHEQTYEEFLSTFTHLSKEDNVAKWGAHGTDSSENIFSTVKWNHKTESNGCHFRNTTIFLHTSSEHSEEDQIVIDEGHKVGSSFQGDMTRAGKVKVDNFLDLEDVDMEEESKPQMNKDCLLLPGEVEQDISTSVPSYDPSVDLPLTSEVRPKPAVGRTQKQTEEILGDEVQPFFLDEEFDYDNVTLTPKFTAGEIATIQELSKQKRVGSGTNVCELHD”, the entry is “soluble”; as for “SLDWQKGMNSAIDYIEKNLTGNVNVRTAAGFVGCSTWEFQRIFSFLTHIPLSEYIRQRKLTLAAQEIKDNDVKIIDIALKYGYESPAAFSRAFNKLFGIAPSSVRNTENNLKTYPRITFEKIENERLIKMSRFSERGYVVRENGPVYFTKDMDKTVKWFEEILGWSGDIVARDDEGFGDYGCVFDYPSEVAVAHLTPFRGFHLFKGEPIKGVAGFMMIEGIDALHKYVKENGWDQISDIYTQPWGARECSITTTDGCILRFFESIQEG”, “soluble”; as for “SLENKIVKIEPQSIAEEMGIEVGDSLISINGKEVKDIIDYRFLMADEYVVVKIQKTNKEIWELEIEKEYDEKLGVEFESGILDSAKSCRNKCIFCFIDQLPKGMRKTLYFKDDDSRLSFLQGNFVTLTNMSDDDIDRIIKYRISPINISVQTTNPELRKKMLNNKFAGNLMERMKKLSNAGITMNCQVVLCPGINSGEEFSKTVNDLYKLYPSVKNIAGVPVGITSYREGLFNMVPYDSQSALKEIENIKPIQEKFIKEIGSPFVRLSDEFYVLSGIPIPKAEFYGEFEQFEDGIGMIRTFRDNINMSLDNLKDGIHKSFTMVTGVLAYEEIENAAKMLMEKSRGLKINVIKVINEFFGEKITVAGLLTGRDILNYLKRNEVGDYIILPSNMLKSDEDVFLDDVKVLDIEKELNKKVLVCNYSGEDLVDIINKNGREE”, “soluble”.
With “SLERPPALAMPMPTEGTPPPLSGTPIPVPAYFRHAEPGFSLKRPRGLSRSLPPPPPAKGSIPISRLFPPRTPGWHQLQPRRVSFRGEASETLQSPGYDPSRPESFFQQSFQRLSRLGHGSYGEVFKVRSKEDGRLYAVKRSMSPFRGPKDRARKLAEVGSHEKVGQHPCCVRLEQAWEEGGILYLQTELCGPSLQQHCEAWGASLPEAQVWGYLRDTLLALAHLHSQGLVHLDVKPANIFLGPRGRCKLGDFGLLVELGTAGAGEVQEGDPRYMAPELLQGSYGTAADVFSLGLTILEVACNMELPHGGEGWQQLRQGYLPPEFTAGLSSELRSVLVMMLEPDPKLRATAEALLALPVLRQPRAWGVLWCMAAEALSRGWALWQALLALLCWLWHGLAHPASWLQPLGPPATPPGSPPCSLLLDSSLSSNWDDDSLGPSLSPEAVLARTVGSTSTPRSRCTPRDALDLSDINSEPPRGSFPSFEPRNLLSLFEDTLDPT”, the “soluble on expression in E. coli” value is on record as “soluble”.
Turning to “SLETYGDSLATAVAERWNNHQAFIFGLATGAVVRLIAPLLQSKQSDPAVLVVDAMGQSVISLLSGHQGGGDRLAQIVAEQLQAKAILTGGANGLGQIAVDCLGIPFGWRKGKGDWTAVSSALAAQKLVGVTQTAGLTLWQNHLPPGHGFTFSGTKETTATLLITVQESNLEKLNKPMAPWHPRLLWIGVGCVRGTDLALLERALLEVLERENLSPLAIAGLASVHLKADEVGMQQFAQKYDLPFFTFPPEQLAAQAVPNPSEVVLQEVGTPSVAEAAALTAAQMYSQGGKLIAEKVIVKQHNQAVTVAIAKGE”, the “soluble on expression in E. coli” value is given as “not soluble”.
As for “SLFNPNELKMDFLKRPVTHSFLKLEIMPYKSAFNLRMRENIQSYYKQALRGWGSFEDELLGLKNTLKNLPLYQTLKIKPKKINAPICVVGNGPSLDLLLDFLKENEKNCIIFSCGTALKPLKTHGVKVDFQIEVERIDYLKEVLENAPLEDTPLMGANMLNPNAFNVAKEALMFMRGGSACAYISPLSIEYAAPLVGNAGVALAGLMSDEIYLCALDCAYIKGFKKHAQNSYYGDEKEIDTSSLISVEGNFKGYETFSDSLFLLSKERIEEALNHYQPKKVYNLSYGAKIKHAVSLNYSQVKL”, the entry is “not soluble”; as for “SLGEMKRAAIIIDDFGGDVKGVDDFLTGEIPVTVAVMPFLEHSTKQAEIAQAAGLEVIVHMPLEPKKGKISWLGPSGITSNLSVGEVKSRVRKAFDDIPYAVGLNNHMGSKIVENEKIMRAILEVVKEKNAFIIDSGTSPHSLIPQLAEELEVPYATRSIFLDNTHSSRKEVIKNMRKLAKKAKQGSEPIGIGHVGVRGDETYAGIRSMLDEFQAESIQLVPVSQLLPSPIEEDHNKFWQQPFQAKE”, “soluble”.
The same measure for “SLGHWQLASKPTVLKGLPASTGVAIGEFWFDNTQPSLSDVFPSSTLDKEREQELLLVAIERALNDFRRMRKKFDSEINKDALAIFDLFTHLLNDPMLRGDLKKQIEKGDRADWALRQVVETYSNRFARMSDVYLRERAQDIRELGQRLLYFLHNSEQENAAIDRPIILVANELTATLLASVPKEHLLAVVSLEGGANSHAAILSRALGVPAVMGANINTDVVNGKLGIVDGYTGEIFLEPNRQLLREYRSLVSEESELFAMVNKDLA”: “not soluble”; for “SLGWFKTCSKQEDNDVCVVQNVVLAQNGQMITAVGLITVEGKVNRKLLQVSVPTARLIPPGVMMQIDGGKGQKLDYAVCLPDKCTAEVPLTDAMIASLKKGSEVVFTSINFRRAPNPIKIALSGFTGAYDGAAITQSQLAE”: “not soluble”; for “SLHAAKDEVRSRLMPINRAYNVEKLIEAIQYYQEKTNRRVTFEYGLFGGVNDQLEHARELAHLIKGLNCHVNLIPVNHVPERNYVKTAKNDIFKFEKELKRLGINATIRREQGSDIDAACGQLRAKERQVETR”: “soluble”.
